In article PMC10681739, “High-throughput data and modeling reveal insights into the mechanisms of cooperative DNA-binding by transcription factor proteins”:

T1: ETS1 (Homo sapiens, UniProt P14921)
T1 sequence: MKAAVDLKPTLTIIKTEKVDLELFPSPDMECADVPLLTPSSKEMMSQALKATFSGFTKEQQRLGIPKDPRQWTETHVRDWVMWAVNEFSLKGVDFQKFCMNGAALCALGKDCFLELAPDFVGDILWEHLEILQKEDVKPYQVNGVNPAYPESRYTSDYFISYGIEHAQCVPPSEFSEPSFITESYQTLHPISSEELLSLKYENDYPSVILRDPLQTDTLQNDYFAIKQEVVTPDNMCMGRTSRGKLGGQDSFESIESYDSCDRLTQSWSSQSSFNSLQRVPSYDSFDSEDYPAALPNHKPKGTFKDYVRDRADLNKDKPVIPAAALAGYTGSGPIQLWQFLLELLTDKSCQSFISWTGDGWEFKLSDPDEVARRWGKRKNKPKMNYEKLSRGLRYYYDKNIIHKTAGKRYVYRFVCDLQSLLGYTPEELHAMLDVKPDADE


Target: T1, ETS1
Assay: gcPBM; 1 nM ETS1
Settings: tags: N-terminal GST (pDEST15), kept (PMC6008103); label: surface-attached array probe

Binder | binding signal
Table S2 B row 1979 (dsDNA) DNA 1: CTGAAACAGGAAGCTGAGGGTGCCGTTGGGGGAGGA DNA 2: TCCTCCCCCAACGGCACCCTCAGCTTCCTGTTTCAG | 3960 PBM fluorescence, median of replicate spots
Table S2 B row 573 (dsDNA) DNA 1: GCCACCGTATTTCCGCGTTTTTCGAGGTAGGCGGGA DNA 2: TCCCGCCTACCTCGAAAAACGCGGAAATACGGTGGC | 3870 PBM fluorescence, median of replicate spots
Table S2 B row 1731 (dsDNA) DNA 1: GACTGGTTTCCTGGTTTTGATGTAGTTTAGAGAAAA DNA 2: TTTTCTCTAAACTACATCAAAACCAGGAAACCAGTC | 3820 PBM fluorescence, median of replicate spots
Table S2 B row 1163 (dsDNA) DNA 1: ATCACTTGTTTCCGCCAGCAAATCACAGGTCCCCAG DNA 2: CTGGGGACCTGTGATTTGCTGGCGGAAACAAGTGAT | 3770 PBM fluorescence, median of replicate spots
Table S2 B row 3281 (dsDNA) DNA 1: GACCTGACAACATCCTGGCGCAGTGAGTTGGCCCTG DNA 2: CAGGGCCAACTCACTGCGCCAGGATGTTGTCAGGTC | 3720 PBM fluorescence, median of replicate spots
Table S2 B row 3477 (dsDNA) DNA 1: CTACCGGGAGTGCAGGTCGCGCTTCCGGCGGCGTCC DNA 2: GGACGCCGCCGGAAGCGCGACCTGCACTCCCGGTAG | 3610 PBM fluorescence, median of replicate spots
Table S2 B row 3902 (dsDNA) DNA 1: TGGGGCCCGGAAGCGCTGGCGCCTTACGGCCAGAAG DNA 2: CTTCTGGCCGTAAGGCGCCAGCGCTTCCGGGCCCCA | 3570 PBM fluorescence, median of replicate spots
Table S2 B row 4083 (dsDNA) DNA 1: GCCCCAGCGTTTCCTCTTACCCAAAATGCCCCGCCC DNA 2: GGGCGGGGCATTTTGGGTAAGAGGAAACGCTGGGGC | 3440 PBM fluorescence, median of replicate spots
Table S2 B row 3084 (dsDNA) DNA 1: TTTGCACACATCCTGGCCTCCGCCTGAGCACCTCCT DNA 2: AGGAGGTGCTCAGGCGGAGGCCAGGATGTGTGCAAA | 3370 PBM fluorescence, median of replicate spots
Table S2 B row 544 (dsDNA) DNA 1: GCTCCCGGATGTTCTGGGGATCAGCGCCCGCCTGGC DNA 2: GCCAGGCGGGCGCTGATCCCCAGAACATCCGGGAGC | 3300 PBM fluorescence, median of replicate spots
Table S2 B row 799 (dsDNA) DNA 1: ATGAACCACTTCCTGTGTGTTCCCAGAGAGGTCAGG DNA 2: CCTGACCTCTCTGGGAACACACAGGAAGTGGTTCAT | 25100 PBM fluorescence, median of replicate spots
Table S2 B row 540 (dsDNA) DNA 1: AACAAACCGGATGGGGTTGCCACCTGCAATCTTGTC DNA 2: GACAAGATTGCAGGTGGCAACCCCATCCGGTTTGTT | 3220 PBM fluorescence, median of replicate spots
Table S2 B row 1543 (dsDNA) DNA 1: AAACCAGAGAGGAAGTGGCACCTCATGGCCAGACTG DNA 2: CAGTCTGGCCATGAGGTGCCACTTCCTCTCTGGTTT | 3160 PBM fluorescence, median of replicate spots
Table S2 B row 145 (dsDNA) DNA 1: CCACCATCTTTCCGGCTCCCTCGCGACCTCCACGAC DNA 2: GTCGTGGAGGTCGCGAGGGAGCCGGAAAGATGGTGG | 3090 PBM fluorescence, median of replicate spots
Table S2 B row 1606 (dsDNA) DNA 1: CCGCTTCCTTAGAGGTTAAGTGGTGGAGGTTCAGTT DNA 2: AACTGAACCTCCACCACTTAACCTCTAAGGAAGCGG | 3060 PBM fluorescence, median of replicate spots
Table S2 B row 306 (dsDNA) DNA 1: GAGAAACAGGAAGAGGGGTGGTGCTTACGGAACACG DNA 2: CGTGTTCCGTAAGCACCACCCCTCTTCCTGTTTCTC | 2960 PBM fluorescence, median of replicate spots
Table S2 B row 479 (dsDNA) DNA 1: CACTTCCCCCAGCCTCTCTTTTTAATACGACAATAG DNA 2: CTATTGTCGTATTAAAAAGAGAGGCTGGGGGAAGTG | 2920 PBM fluorescence, median of replicate spots
Table S2 B row 2920 (dsDNA) DNA 1: GGCGCTAGGCTTCCGGATCGCGCTGGGCGGAGTTCA DNA 2: TGAACTCCGCCCAGCGCGATCCGGAAGCCTAGCGCC | 2860 PBM fluorescence, median of replicate spots
